The values that follow come from the supplement of paper PMC7125110.

The labels stand for the following.
B1: glmS ribozyme (parent)
chain: AUAAAAGCGCCAGAACUACAGAAAUGUAGUUGACGAGGAGGAGGUUUAUCGAAUUUUCGGCGGAUGCCUCCAAA

± gives the standard error. Variants at the floor of the assay were thinned out.

Common to all, as to details: with glucosamine-6-phosphate
Variants of B1 are the subject of data set [1]. The data set can be described thus: self-cleavage kobs at 160 uM GlcN6P; higher = faster cleavage; RNA array. Summed up: (§1)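 Sequenced MiSeq chips were the platform: E. coli RNA polymerase transcribed barcoded ribozyme variants on them in situ, and a hybridised Cy3 probe tracked these at 37 °C. After glucosamine-6-phosphate (40 μM to 10 mM) in HEPES/KCl/Mg(OAc)2 buffer was flowed in, tiles were imaged over ~14 h. Signals normalised to baseline and to non-cleaving reference variants were reduced to per-tile medians and fit to one- or two-exponential decays to obtain kobs. kcat and KM were derived through weighted Michaelis–Menten fits across concentrations.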

The variants in data set [2] derive from B1. The data set can be described thus: self-cleavage kobs at 640 uM GlcN6P; higher = faster cleavage; RNA array. In a few lines:
as §1

The variants in data set [3] derive from B1. The data set can be described thus: self-cleavage kobs at 2500 uM GlcN6P; higher = faster cleavage; RNA array. Summed up:
as §1

In data set [4] the parent is B1. The data set can be described thus: self-cleavage kobs at 10000 uM GlcN6P; higher = faster cleavage; RNA array. In a few lines:
as §1

For the variant C50G U54A G63A, the “self-cleavage kobs at 160 uM GlcN6P” value in the data set with glucosamine-6-phosphate [1] is 0.000158 ± 4.4e-05 s⁻¹. In the data set with glucosamine-6-phosphate [2], the “self-cleavage kobs at 640 uM GlcN6P” value amounted to 0.000109 ± 2.9e-05 s⁻¹. Moreover, the “self-cleavage kobs at 2500 uM GlcN6P” value with glucosamine-6-phosphate [3] is 8.83e-05 ± 1.8e-05 s⁻¹.
For C34A A42G G66U, in that order: < 1e-05 s⁻¹, < 1e-05 s⁻¹ and < 1e-05 s⁻¹.
On to A12C C16U A53G U65G, for which the “self-cleavage kobs at 160 uM GlcN6P” value with glucosamine-6-phosphate [1] is 9.62e-05 ± 2.4e-05 s⁻¹. In addition, the “self-cleavage kobs at 640 uM GlcN6P” value in the data set with glucosamine-6-phosphate [2] is 0.000453 ± 9.1e-05 s⁻¹. For the same variant, the “self-cleavage kobs at 2500 uM GlcN6P” value with glucosamine-6-phosphate [3] worked out at 0.000899 ± 0.00019 s⁻¹.
Consider C10G G13U A15C, for which the “self-cleavage kobs at 160 uM GlcN6P” value with glucosamine-6-phosphate [1] was < 1e-05 s⁻¹. Further, the “self-cleavage kobs at 640 uM GlcN6P” value in the data set with glucosamine-6-phosphate [2] is < 1e-05 s⁻¹.
C34A G41A C71U: in the data set with glucosamine-6-phosphate [1], the “self-cleavage kobs at 160 uM GlcN6P” value was < 1e-05 s⁻¹.
Turning to G7A G59U C70A, the “self-cleavage kobs at 160 uM GlcN6P” value with glucosamine-6-phosphate [1] is < 1e-05 s⁻¹. Moreover, the “self-cleavage kobs at 2500 uM GlcN6P” value with glucosamine-6-phosphate [3] is < 1e-05 s⁻¹.
As to G38A A42U A52U C68A, in the data set with glucosamine-6-phosphate [1], the “self-cleavage kobs at 160 uM GlcN6P” value is < 1e-05 s⁻¹. Moreover, the “self-cleavage kobs at 640 uM GlcN6P” value with glucosamine-6-phosphate [2] was < 1e-05 s⁻¹. For the same variant, the “self-cleavage kobs at 2500 uM GlcN6P” value with glucosamine-6-phosphate [3] was < 1e-05 s⁻¹.
In the case of U17G, the “self-cleavage kobs at 160 uM GlcN6P” value with glucosamine-6-phosphate [1] was determined as 0.00191 ± 0.00076 s⁻¹. The “self-cleavage kobs at 640 uM GlcN6P” value in the data set with glucosamine-6-phosphate [2] stood at 0.00535 ± 0.0016 s⁻¹.
U30G U31C A33U U45A U55A: the “self-cleavage kobs at 160 uM GlcN6P” value with glucosamine-6-phosphate [1] is < 1e-05 s⁻¹.
Consider A12C G59U, for which the “self-cleavage kobs at 160 uM GlcN6P” value in the data set with glucosamine-6-phosphate [1] was < 1e-05 s⁻¹. In addition, the “self-cleavage kobs at 2500 uM GlcN6P” value with glucosamine-6-phosphate [3] was < 1e-05 s⁻¹. Moreover, in the data set with glucosamine-6-phosphate [4], the “self-cleavage kobs at 10000 uM GlcN6P” value was < 1e-05 s⁻¹.
For G7U C16G U30G G59A U69G, the “self-cleavage kobs at 160 uM GlcN6P” value with glucosamine-6-phosphate [1] was < 1e-05 s⁻¹.
For G44U C71G, in the data set with glucosamine-6-phosphate [1], the “self-cleavage kobs at 160 uM GlcN6P” value is < 1e-05 s⁻¹. Moreover, the “self-cleavage kobs at 640 uM GlcN6P” value with glucosamine-6-phosphate [2] was < 1e-05 s⁻¹. The “self-cleavage kobs at 10000 uM GlcN6P” value in the data set with glucosamine-6-phosphate [4] was < 1e-05 s⁻¹.
Consider U30A G32A A39G, for which the “self-cleavage kobs at 160 uM GlcN6P” value with glucosamine-6-phosphate [1] stood at 6.92e-05 ± 2.4e-05 s⁻¹. The “self-cleavage kobs at 640 uM GlcN6P” value with glucosamine-6-phosphate [2] was found to be 0.000602 ± 0.00013 s⁻¹. Also, in the data set with glucosamine-6-phosphate [3], the “self-cleavage kobs at 2500 uM GlcN6P” value came out at 0.000618 ± 0.0002 s⁻¹. Also, the “self-cleavage kobs at 10000 uM GlcN6P” value with glucosamine-6-phosphate [4] was determined as 0.00306 ± 0.00073 s⁻¹.
For C11G A12G G13C A14G, the “self-cleavage kobs at 160 uM GlcN6P” value with glucosamine-6-phosphate [1] was < 1e-05 s⁻¹. Moreover, the “self-cleavage kobs at 640 uM GlcN6P” value with glucosamine-6-phosphate [2] is < 1e-05 s⁻¹. In addition, the “self-cleavage kobs at 2500 uM GlcN6P” value in the data set with glucosamine-6-phosphate [3] was < 1e-05 s⁻¹. For the same variant, the “self-cleavage kobs at 10000 uM GlcN6P” value with glucosamine-6-phosphate [4] was < 1e-05 s⁻¹.
Consider C8A A15U A36C A52G, for which the “self-cleavage kobs at 160 uM GlcN6P” value with glucosamine-6-phosphate [1] is < 1e-05 s⁻¹.
In the case of G7C C61A, the “self-cleavage kobs at 160 uM GlcN6P” value in the data set with glucosamine-6-phosphate [1] is < 1e-05 s⁻¹. In addition, the “self-cleavage kobs at 640 uM GlcN6P” value with glucosamine-6-phosphate [2] is < 1e-05 s⁻¹.
U17C C50G C71U: the “self-cleavage kobs at 160 uM GlcN6P” value with glucosamine-6-phosphate [1] was determined as 6.74e-05 ± 2.2e-05 s⁻¹. Further, the “self-cleavage kobs at 640 uM GlcN6P” value with glucosamine-6-phosphate [2] was 0.000319 ± 9.7e-05 s⁻¹. Moreover, the “self-cleavage kobs at 2500 uM GlcN6P” value with glucosamine-6-phosphate [3] is 0.000253 ± 4.6e-05 s⁻¹.
As for U46A U65G, in the data set with glucosamine-6-phosphate [1], the “self-cleavage kobs at 160 uM GlcN6P” value amounted to 0.000293 ± 6.7e-05 s⁻¹. Also, in the data set with glucosamine-6-phosphate [2], the “self-cleavage kobs at 640 uM GlcN6P” value was found to be 0.000975 ± 0.00016 s⁻¹. Also, the “self-cleavage kobs at 2500 uM GlcN6P” value with glucosamine-6-phosphate [3] turned out to be 0.00122 ± 0.00021 s⁻¹. The “self-cleavage kobs at 10000 uM GlcN6P” value with glucosamine-6-phosphate [4] turned out to be 0.00301 ± 0.00058 s⁻¹.
For C10U A39U G59A C70U, the “self-cleavage kobs at 160 uM GlcN6P” value in the data set with glucosamine-6-phosphate [1] was < 1e-05 s⁻¹. In addition, the “self-cleavage kobs at 2500 uM GlcN6P” value in the data set with glucosamine-6-phosphate [3] is < 1e-05 s⁻¹.
Turning to C8A C61U A64C C67U, the “self-cleavage kobs at 160 uM GlcN6P” value with glucosamine-6-phosphate [1] is < 1e-05 s⁻¹. Besides, in the data set with glucosamine-6-phosphate [2], the “self-cleavage kobs at 640 uM GlcN6P” value was < 1e-05 s⁻¹. In the data set with glucosamine-6-phosphate [3], the “self-cleavage kobs at 2500 uM GlcN6P” value was < 1e-05 s⁻¹.
As to C50A U54G C67G, in the data set with glucosamine-6-phosphate [1], the “self-cleavage kobs at 160 uM GlcN6P” value came to 0.000319 ± 0.00012 s⁻¹. For the same variant, in the data set with glucosamine-6-phosphate [2], the “self-cleavage kobs at 640 uM GlcN6P” value stood at 0.000125 ± 4.8e-05 s⁻¹. Moreover, the “self-cleavage kobs at 2500 uM GlcN6P” value in the data set with glucosamine-6-phosphate [3] was determined as 0.000101 ± 4.6e-05 s⁻¹.
On to G13U A33G G40U, for which the “self-cleavage kobs at 160 uM GlcN6P” value in the data set with glucosamine-6-phosphate [1] was < 1e-05 s⁻¹.
Turning to C10G U57C, the “self-cleavage kobs at 160 uM GlcN6P” value in the data set with glucosamine-6-phosphate [1] is < 1e-05 s⁻¹. Also, the “self-cleavage kobs at 640 uM GlcN6P” value in the data set with glucosamine-6-phosphate [2] is < 1e-05 s⁻¹. In the data set with glucosamine-6-phosphate [3], the “self-cleavage kobs at 2500 uM GlcN6P” value is < 1e-05 s⁻¹. Further, in the data set with glucosamine-6-phosphate [4], the “self-cleavage kobs at 10000 uM GlcN6P” value is < 1e-05 s⁻¹.
C34G A53U C68U: the “self-cleavage kobs at 160 uM GlcN6P” value with glucosamine-6-phosphate [1] is < 1e-05 s⁻¹. Moreover, the “self-cleavage kobs at 2500 uM GlcN6P” value with glucosamine-6-phosphate [3] is < 1e-05 s⁻¹.
With G43C C50A C58U, the “self-cleavage kobs at 160 uM GlcN6P” value with glucosamine-6-phosphate [1] was < 1e-05 s⁻¹. In addition, the “self-cleavage kobs at 640 uM GlcN6P” value with glucosamine-6-phosphate [2] is < 1e-05 s⁻¹. Besides, in the data set with glucosamine-6-phosphate [3], the “self-cleavage kobs at 2500 uM GlcN6P” value is < 1e-05 s⁻¹.
